Test results taken from patent publication US20260168005A1, “DRUG SCREENING METHOD BASED ON DRUG DISCOVERY CONCEPT OF CANCER CELL PROLIFERATION INHIBITION INDUCED BY DISRUPTION OF CHROMOSOME REGULATION DUE TO PLK1 KINASE ACTIVATION” (JAPANESE FOUNDATION FOR CANCER RESEARCH, priority 2022, published 2026).
No end group written: not given here.

Experiments:
HeLa cells = test: Cell death on expression of GFP-tagged PON peptide, live cell imaging; type: cell-based; conditions: plasmid transfection, GFP tag at N-terminus, live cell imaging (FIG. 6B)
From the text: (§1) Plasmids that express WT ([…]: SEQ ID NO: 1) and a TA mutant (Plk1 unbound, […]: SEQ ID NO: 2) of the PON peptide with a GFP tag added to the N-terminus were introduced into HeLa cells by a plasmid transfection method with FuGENE HD transfection Reagent (Promega Corporation) and into RPE1 cells by a nucleofection method with 4D nucleofector (Lonza Group Ltd.). Since the PON peptide binds to the PBD upon phosphorylation by Cdk1, a TA mutant of the PON peptide in which the phosphorylation site was substituted with Ala was used as a negative control.
(§2) Observation was performed using live cell imaging, and the number of cells that underwent cell death in cells with GFP expression observed was counted. […] In other words, suppression of the association of the PBD and KD of endogenous Plk1 can cause significant cell growth suppression to be induced in cancer cells (FIG. 6B). From the fact that induction of cell death due to Plk1 activation is not observed in normal cells, compounds that activate Plk1 are expected to exert an effect in a cancer cell-specific manner.

RPE1 cells = test: as above; type: cell-based; conditions: RPE1 normal diploid cells, nucleofection, GFP tag at N-terminus, live cell imaging (FIG. 6B)
From the text: as §1, §2

recombinant GST-His-Plk1 = recombinant GST-His-Plk1 (Homo sapiens, UniProt P53350); test: Intramolecular TR-FRET assay of kinase domain / Polo-Box domain association; type: binding; conditions: Plk1 0 to 100 nM; pPON 0 to 1000 µM, PxVXL 25 to 100 µM; room temperature 1 hour, then GST-Tb and His-d2 3 hours (FIG. 7B)
Chain of recombinant GST-His-Plk1 (P53350 whole entry, the tested form may be a part): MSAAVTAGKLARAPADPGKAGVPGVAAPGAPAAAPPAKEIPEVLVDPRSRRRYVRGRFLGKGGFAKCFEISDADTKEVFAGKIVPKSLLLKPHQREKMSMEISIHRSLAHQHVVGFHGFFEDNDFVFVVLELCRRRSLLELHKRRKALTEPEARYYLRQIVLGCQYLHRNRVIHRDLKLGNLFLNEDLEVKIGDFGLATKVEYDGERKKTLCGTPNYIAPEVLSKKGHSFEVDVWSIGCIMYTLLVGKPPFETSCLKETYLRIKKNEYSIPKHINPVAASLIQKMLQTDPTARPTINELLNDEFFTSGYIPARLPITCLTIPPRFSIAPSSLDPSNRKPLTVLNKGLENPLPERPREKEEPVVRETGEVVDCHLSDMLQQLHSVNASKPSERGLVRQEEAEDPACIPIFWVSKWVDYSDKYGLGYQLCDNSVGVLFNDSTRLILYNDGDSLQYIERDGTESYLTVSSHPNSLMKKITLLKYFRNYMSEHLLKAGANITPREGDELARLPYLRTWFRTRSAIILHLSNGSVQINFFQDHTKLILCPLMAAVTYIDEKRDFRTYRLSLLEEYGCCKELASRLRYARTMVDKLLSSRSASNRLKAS
From the text: In other words, it is an assay system that reflects the folding state within Plk1 molecules, and a screening system for drug discovery sees according to the mechanism of action of “inhibiting the suppressive association within the molecules to lead to kinase activation”. A fluorescence resonance energy transfer (FRET) assay system that detects the interaction of PBD that suppressively associates with the Plk1 kinase domain was constructed. The design was made as follows: a full-length recombinant protein was purified, and a donor (GST-Tb) were placed in the kinase domain and an acceptor (His-d2) in the PBD using antibodies that act as luminescent agents based on the conformational information so that the FRET reaction would efficiently occur.
A recombinant Plk1 in which a GST tag was added into a pFastBacl vector at the N-terminus, and a 6His-tag was inserted in the vicinity of the N-terminus of PB1 (Polo-Box 1) was constructed (left in FIG. 7A, GST-His-Plk1). […]
Intramolecular FRET analysis was performed using the recombinant GST-His-Plk1. […] Then, GST-Tb and His-d2 (PerkinElmer, Inc., MAb Anti-GST-Tb cryptate, MAb Anti-6HIS-d2) were added thereto to react at room temperature for 3 hours, and the emission signals were measured using the time-resolved fluorescence-fluorescence resonance energy transfer method (TR-FRET). […]

endogenous Plk1 = endogenous Plk1 (UniProt P53350); test: cell-based or functional assay
Chain of endogenous Plk1 (P53350 2-603 limits assumed): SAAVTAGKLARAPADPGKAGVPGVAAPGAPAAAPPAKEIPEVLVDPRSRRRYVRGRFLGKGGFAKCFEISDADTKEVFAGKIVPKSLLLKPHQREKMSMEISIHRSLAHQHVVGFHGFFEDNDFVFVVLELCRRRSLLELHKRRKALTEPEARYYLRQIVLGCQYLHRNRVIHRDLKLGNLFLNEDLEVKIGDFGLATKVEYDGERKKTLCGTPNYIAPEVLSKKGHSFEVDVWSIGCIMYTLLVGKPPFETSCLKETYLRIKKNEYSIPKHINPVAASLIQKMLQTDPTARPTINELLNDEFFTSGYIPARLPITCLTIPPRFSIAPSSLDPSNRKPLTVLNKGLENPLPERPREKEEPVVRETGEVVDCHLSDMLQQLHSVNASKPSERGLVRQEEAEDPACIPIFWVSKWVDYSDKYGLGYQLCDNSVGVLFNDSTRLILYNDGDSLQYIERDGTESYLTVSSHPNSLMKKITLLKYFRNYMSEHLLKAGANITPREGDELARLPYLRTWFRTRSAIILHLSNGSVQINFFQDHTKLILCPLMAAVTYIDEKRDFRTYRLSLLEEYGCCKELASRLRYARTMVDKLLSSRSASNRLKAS

[1] = target: recombinant GST-His-Plk1 (WT) (Homo sapiens, UniProt P53350); test: ADP-Glo kinase assay with dephosphorylated casein substrate; type: biochemical; conditions: pPON 0 to 1000 M; 0.5 μg dephosphorylated casein; 5 µM ATP; room temperature 1 hour (FIG. 10A)
Chain of recombinant GST-His-Plk1 (WT) (Homo sapiens, UniProt P53350) (P53350 whole entry): as the sequence (P53350 whole entry, the tested form may be a part) above
Experimental: Further, the kinase activity of GST-His-Plk1 was evaluated by a kinase assay. First, it was confirmed that the kinase activity of the recombinant GST-His-Plk1, which contained a His-tag for FRET in the molecule, was equivalent to that of the one without the tag. Next, GST-His-Plk1 was used and mixed with 0.5 μg of dephosphorylated casein as a phosphorylation substrate in the presence of pPON ([…]), a kinase reaction was performed at room temperature for 1 hour in the presence of 5 µM of ATP, and a kinase reaction was performed between the recombinant GST-His-Plk1 (WT) (0 to 3.36 μM) and the dephosphorylated casein. Using an ADP-Glo (trademark) kinase assay kit (Promega Corporation), the kinase activity was measured by an ADP-Glo method, which quantifies in the […]. […] Also, the results of the kinase assays using the S137D/T210D mutant and S137D mutant also indicate that high kinase activity can be obtained when the intramolecular association is inhibited (FIG. 10B). Accordingly, the kinase assay can be used as a screening method that detects the association between the kinase domain and PBD of Plk1, and suppression of the association can be detected. Also, in the case of using the kinase assay for screening, a construct in which a kinase domain and PBD are separated can also be used.

[2] = target: T1, recombinant GST-His-Plk1 (WT) (UniProt P53350 2-603, limits assumed); test: intramolecular TR-FRET on GST-His-Plk1 (indirect read-out)
T1 construct: mature; Made in the Baculovirus/Sf9 system and purified on Glutathione Sepharose; also called Plk1 recombinant protein; wild-type GST-His-Plk1; not shown: N-terminal GST tag
T1 sequence (P53350 2-603 limits assumed): as the sequence (P53350 2-603 limits assumed) above

Row | Molecule | death of cells (percentage of GFP-expressing cells that underwent cell death) (HeLa cells) | FRET signal (His-d2 relative to GST-Tb) (recombinant GST-His-Plk1) | further results
1 | ESCFTNAAFSSAPKK [TA mutant, reference compound] | about 30% |  | 
2 | ESCFTNAAFSSTPKK [PON peptide] | ≥ 70% |  | increase in cell death (RPE1 cells): no increase in cell death was observed
3 | NHTQCQLVPVVEIGISERON (NHTQCQLVPVVEIGISERQN) [PxVXL, reference compound] |  | this effect was not observed | 
4 | PON peptide WT with a GFP tag added to the N-terminus |  |  | percentage of cell death in GFP-expressing HeLa cells (live cell imaging) (endogenous Plk1): > 70%
5 | pPON: pPON peptide (SEQ ID NO: 1) reacted with recombinant Plk1 in FRET and kinase assays (ESCFTNAAFSSTPKK; also: phosphorylated, position not given here) |  | FRET signals were reproducibly observed to gradually decrease | kinase activity [1]: kinase activity increased depending on the amount of pPON added
6 | NHTQCQLVPVVEIGISERQN (Printed in the text as NHTQCQLVPVVEIGISERON; The 'O' may be a printing error) [PxVXL peptide (negative control peptide that does not bind to PLK1)] |  |  | binding result [2]: no binding (tested: 25 to 100 UM)
